# According to the nanobody polyreactivity screen of Harvey et al. (2022):
# Experiment: yeast display, Sf9 membrane polyspecificity reagent, FACS + sequencing; frameworks hold sequencing errors
# Procedure, shortened: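 After 36–48 hours of galactose induction, yeast (Saccharomyces cerevisiae BJ5465) displaying a synthetic nanobody library were stained at 4 °C for 1 hour with 10% biotinylated, detergent-solubilized Sf9 membrane reagent. Streptavidin microbeads enriched the stained cells before FACS sorting into low and high (top ~1%) gates on anti-HA and streptavidin fluorescence. Each clone's polyreactivity label reflects its gate of origin.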
row,Sequence,polyreactivity (PSR sort gate)
1,QVQLVESGGGLVQAGGSLRLSCAASGINFCWYAMGWYRQAPGKERELVAAISGTGGSTYYADSVKGRFTISRDNAKNTVYLQMNSLKPEDTAVYYCAARGKSSSYYDYDYCGQGTQVTVSS,low polyreactivity
2,QVQLVESGGGLVQAGGSLRLSCAASGLTFWFYAMGWYRQAPGKERELVASISRGGRTYYADSVKGRFTISRDNAKNTVYLQMNSLKPEDTAVYYCIADELYYEYKDYDYWGQGTQVTVSS,low polyreactivity
3,QVQLVESGGGLVQAGGSLRLSCAASGRTFGYAMGWYRQAPGKERERVAAISSGGGRTYYADSVKGRFTISRDNAKNTVYLQMNSLKPEDTAVFYCNARHIFGASRRARFGYWGQGTQVTVSS,high polyreactivity
4,QVQLVESGRGLVQAGCSLRLSCASSGFIFVFNAMGRYRQAPGKERELVAAINGGDITNYAYSVKGRFTISRDNAKNTVYIQMNSLKPEDTAVYYCAADGEDSLWSGYDYDYWGLGTQVTVSS,low polyreactivity
5,QVQLVESGGGLVQAGGSLRLSCAASGRIFVYYAMGWYRQAPGKEREFVAAISSRDDSTYYADSVKGRFTISRDNAKNTVYLQMNSLKPEDTAVYYCAADWRLGVGYDYWGQGSQVTVSS,low polyreactivity
6,QVQLVESGGGLVQAGGSLRLSCAASGFIFPVNARGGSRQAPGKERELHADISSDGSTNYADSVKGRFTISRDNAKNTVYLQMNSLKPEDTAVYYCAREDNLRHQSDSRYDYWGQGTQVTVSS,low polyreactivity
7,QVQLVESGGGLVQAGGSLRLSCAASGRIFRRYVMGWYRQAPGKERELVARIRIRDSNTYYADSVKGRFTISRDNAKNTVYLQMNSLKPEDTAVYYCNADTWADRSTYDYWGQGTQVTVSS,low polyreactivity
8,QAQLVETGGGLVQAGGSRRLSCAASGRTYKGYVMGWYRQAPGKEREFVAVITRDGGSTYYAVSVKGRFTISRDNAKNTVYLEMKSLKPEDTEVYYCASTYYPVAGEYDYWGQGTKVTVSS,low polyreactivity
9,QVQLEEKRRGLVQAGGSLRLSCASSGRTFVTNAMGRYRQAPGKERELVAAISSSGGSTYYADSVKGRFTISRDNAMNTVYLQMNSLKPEDTAVYYCAVAGQTKGQYDYWGQGTQVTVSS,low polyreactivity
10,QVQLVESGVGLVQAGGSLRLTCAASGSIFSVYAMGWYRPAPGKESELVAAITSSGGLTYYADSVKGRITISRDYAKNSVYLQMTSLIPEDTAVYYCATRGIPDDIARDYWGLGTQVTVSS,low polyreactivity
11,QVQLVESWGGLVQAGGSLRLTCAASGRILWFYSMGWYRQAPGKERELVAAISSSSGRTYYADSVKGRYTISRDNAKNTVSLQMNSLKPEDTAVYYCAATHAVARPLEYDYWGQGTQVTVSS,low polyreactivity
12,QEQLQESGGGLVQAGGSLRLSCAASGSISPYIYMGWYRQAPGKERAFVAGIGYGGTTNYADSEKGRYTISRDNAKNTEYLQMNSLKPDDTALYYCNAAYFAGPADDKFDYWGQGTQVTVSS,low polyreactivity
13,QVQLVESGGGLVQAGGSLRLSCAASGRILYSYAMGWYRQAPGKEREFVAAIRRSGGSTYYADSVKGRFTISRDNAKNTVYLQMNSLKPEDTAVYYCAAGRRYSGSYDYWGQGTQVTVSS,high polyreactivity
14,QVQLVESGAGLVQAGGSLRLSCAASGRIFHKYAMGWYRQAPGKERELVAAIDWSGGSTYYADSVKGRFTISRDNAKNTVYLQMNSLKPEDTAVYYCAAYWYYEDGQCEARLYGYDYWGQGTQVTVSS,low polyreactivity
15,QVQLVESGGGLVQAGGSLRLSCAASGITFYHYAMGWYRQAPGKEREFVASITSSGGSTYYADSVKGRFTISRDNAKNTVYLQMNSLKPDDSAVYYCAARGYNPYGRKVGYLGQGTQVTVSS,high polyreactivity
16,QVQLVESGGGLVQAGGSLRLICAASGFIFDWNTMGWYRQAPGKEREMVAAISWSGAGTYYADSVKGRFTISRDNAKNTVYLQMNSLKPEDTAVYYCNAVRANGQASQEGEYWGQGTQVTVSS,high polyreactivity
17,QVQLVESGGGLVQAGGTLRLSCAASGITFDYNAMGWYRQAPGKERELVATISDTGSTNYADSVKGRFTISRDNAKNTVYLQMNSLKPEDTAVYYCAADGLGDYHPKWEYQEYDYWGQGTQVTVSS,low polyreactivity
18,QVQLVESGGGLVQAGGRLRLSCAASGRIFPRYVMGWYRQAHGKERELVAAITYRGGSTSYADSVKGRFTISRDNAKNTVYLQMNSLKPEDTAVYYCNAYRRAGRTVGTTRRYYYLGQGTQVTVSS,high polyreactivity
19,QVQLVESGGGLVQAGGSLRLSCAASGLSFYLYAMGWYRQAPGKERELVAAISSSGSSTYYADSVKGRFTISRDNAKNTVYLQMNSLKPEDTAVYYCNARGTRASRYDYWGQGTQVTVSS,high polyreactivity
20,QVQLVESGGGLDQAGGSLRLSCAASGSIFFTYVMGWYRQAPGKERQLVAAISSDDITNYADSVKGRFTISRDNAKNTVYLQMNSLKPEDTAVYYCNADTTLYPYYDYGYYDYDYWGQGTQVTVSS,low polyreactivity
21,QVQLVESGGGLVQAGGSLRLSCAASGSILFTNAMGWYRQAPGKERELVAAISSGGSTYFADSVKGRFTISRDNAKNTVYLQMNSLKQEDTAVYYCAADQLNVGREYVEYDYWGQGTQVTVSS,low polyreactivity
22,QVQLVESGGGLVQAGGSLRLSCAASGSIFSYNAMGWYRQAPGKERELVAAIDWSGGSTYYADSVKGRFTISRDNAKNTVYLQMNSLKPVDTAVYYCNAVGVFYYSYHYHQYDYWGQGTQVTVSS,low polyreactivity

row,Sequence,polyreactivity (PSR sort gate)
1,QVQLVESGGGLVQAGGSLRLSCAASGLIFKRYAMGWYRQAPGKERELVAAISSGTRTYYADSVKGRFTISRDNAKNTVYLQMNSLKPEDTAVYYCAARLDYWGQGTQVTVSS,high polyreactivity
2,QVQLVESGGGLVQAGGSLRLSCAASGRIFYSYAMGWYRQAPGKERELVARITRGSSTYYADSVKGRFTISRDNAKNTVYLQMNSLKPEDTAVYYCAAAVYFQVAFAYYYWGQGTQVTVSS,low polyreactivity
3,QVQLVESGGGLVQAGGSLRLSCAASGSTFQGYAMGWYRQAPGKERELVSAISGSGGNTYYADSVKGRFTISRDNAKNTVYLQMNSLKPEVTAVYSCAAGHVRTDWRYGYWGQGTQVTVSS,low polyreactivity
4,QVQLVESGGCLVQAGGSLRLSCAASGNTFWVNSMGWYRQAPGKERELVAGITSSGDSTSYADSVKGRFTISRDNAKNTVYLQMNSLKPEDTAVYYCAADVGGFWYTEYYWGQGTQVTVSS,high polyreactivity
5,QVQLVESGGGLVQAGGSLRLSCAASGSIFGLYAMGWSRQAPGKERELVASITGGGGTYYADSVKGRFTISRDNAKNTVYLQMNSLKPEDTAVYYCAAALYFGGDSYYYWGQGTQVTVSS,low polyreactivity
6,QVQLVESGGGLVQAGGSLRLSCAASGFNFRANGMGWYRQAPGKERELVATITSGGTTNYADSVKGRFTITRDNAKNTVYLQMNSLKPEDTAVYYCAKRFVQAYFRLYDYWGQGTQVNVSS,low polyreactivity
7,QVQLVESGGGLVQAGGTLRLSCAASGSTQWGYDMGWYRQATGKERELVAAISSSGSNTRYADSVKGRFTISRDNEKNTVYLQLNRLKPEDTAVYYCTARTYLRGKTDYGYDSWGQGTHVTVSS,high polyreactivity
8,QVQLVESGGGLVQAGGSLPLSCAASGFTFDKYAMGWYRQAPGKERELVAAISNSGGRTYYADSVKGRFTISRDNAKKTVYLQMNSLKPEDTAVYYCAAKFRYQYVRVAREYYYWGQGTQVTVSS,high polyreactivity
9,QVHLVESRGGLLQAGGSLRLSCAASVYIFYYYAMGWYRQAPGKEREFVAAITSGDSTYADSVKGRFTISRDNAKNTVYLQMYSLKPEDTAVYYCAAESYFFSPRTREKFDSWGQGTQVTVSS,low polyreactivity
10,QVQLVESGGGLVQAGGSLRLSCAASGIIFRANAMGWYRQAPGKERELVAAISGRGSSTTYADSVKGRFTISRDNAKNTVYLQMNSLKPEDTAVYYCAADTWYPGYYAYDYWGQGTQVTVSS,high polyreactivity
11,QVQLVESGGGLVQAGGSLRLSCAASGSIFSRYAMGWYRQAPGKERELVAAITWSGGSTYYADSVKGRFTISRDNAKNTVYLQMNSLKPEDTAVYYCAAVGYAPYNHRYDYWGQGTQVTVSS,low polyreactivity
12,QVQLVESGGGLVQAGGSLRLSCAASGRIFAGYAMGWYRQAPGKERELVAAISDGGTTNYADSVKGRFTISRDNAKNTVYLQMNSLKPEDTAVYYCAKVAAESYRYGYWGQGTQVTVSS,low polyreactivity
13,QVQLVESGGGLVQAGGSLRLSCAASGITFRWYTMGWYRQAPGKERELVAAITSSGARTYYADSVKGRFTISRDNAKNTVYLQMNSLKPEDTAVYYCAATQTRFAAKDEYWGQGTQVTVSS,high polyreactivity
14,QVQLVESGGGLVQAGGSLRLSCAASGLTFVRYTMGWYRQPPGKVRELVAAITRGDGTNYADSVKGRFTISRDNAKNTVYLHLNCMKPEDTAVYLCADQEHFLWNYYAFDYWGQGTQVTVSS,low polyreactivity
15,QVQLVESGVGLVQAGGSLRLSCAASGNIFGVYAMGWYRQAPGKERELVATITTGGSTYYADSVKGRFTISRDNAKNTVYLQMNSLKPEDSAVYYCAADVGGGNYVYYGNDYDDGYWGQGTQVTVSS,low polyreactivity
16,QVQIVESGGGLVQAGGSLRLSCAASGFIFRRNAMGWYRQAPGKERELVATIRASGGRTYYADSVKGRFTISRDNAKNTVYLQRNSLKPEDTAVYYCNAGKAPYLRYDYWGQGTEVTVSS,high polyreactivity
17,QVQLVESGGGLVQAGGSLRLSCAASGLTFKYYAMGWYRQAPGKERELVAAITSTGGRTYYADSVKGRFTISRDNAKNTVYLQMNSLKPEDTAFYYCAAYYVGSSKYDSWGQGTQVTVSS,low polyreactivity
18,QVQLVESGGGLVQAGGSLRLSCAASGIIFNYYAMGWYRQAPGKERELVAAIRISDTTYYADSVKGRFTISRDNAKNTVYLQMNSLKPEDTAVYYCNTLYYYYYGEVYVRDYDYWGQGTQVTVSS,low polyreactivity
19,QVQLVESGGGIVQAGGSLRLSCAASGGIFFIYTMGWYRQAPGKERELVAAITSTGDTNYADSVKGRFTISRDNAKNTVYLQMNSLKPEDTAVYYCNKDYGTRGKGYDYWGQGTQVTVSS,low polyreactivity
20,QVQLVESGGGLVQAGGSLRLSCAASGLTFPIYAMGWYRQAPGKEREFVAVNTTSGGSTYYADSVKGRFTISRDNAKNTVYLQMNILKPEDTAVYYCNARPEYTYWPGYIYWGEGTQVTVSS,high polyreactivity
21,QVQLVESGGGLFQAGGSLRLSCAASGRIFNSNTMGWYRPAPGKDRELVARIDTGGGSTYADSVKGRFTISRDNAKNTVYLQMNSLQPEDTAVYHCNKIGRWRSWGSTSLVSMDYWGQGTKVTVSS,low polyreactivity
